{
  "source": "patent US20180127513A1",
  "about": "(Bristol-Myers Squibb, published 2018)",
  "binders": {"B1": {"name": "11F11 (antibody, human IgG2, kappa, V domains shown)", "VH": "QVQLVESGGGVVQPGRSLRLSCATSGFTFSNYGMHWVRQAPGKGLEWVAVILYDGSNKYYPDSVKGRFTISRDNSKNTLYLQMNSLRAEDTAVYYCARGGSSWYPDSFDIWGQGTMVTVSS", "VL": "DIQMTQSPSSLSASVGDRVTITCRASQGISSWLAWYQQKPEKAPKSLIYAASSLQSGVPSRFSGSGSGTDFTLTISSLQPEDFATYYCQQYNSYPLTFGGGTKVEIKR", "notes": "IgG2; also called 11F11-2"}},
  "key": {"[1]": {"biological_target": "T1, N-hCD73-his (human, UniProt P21589 26-336)", "T1 construct": "also called hCD73(26-336)His; CD73(26-336)His; not shown: His tag", "T1 sequence": "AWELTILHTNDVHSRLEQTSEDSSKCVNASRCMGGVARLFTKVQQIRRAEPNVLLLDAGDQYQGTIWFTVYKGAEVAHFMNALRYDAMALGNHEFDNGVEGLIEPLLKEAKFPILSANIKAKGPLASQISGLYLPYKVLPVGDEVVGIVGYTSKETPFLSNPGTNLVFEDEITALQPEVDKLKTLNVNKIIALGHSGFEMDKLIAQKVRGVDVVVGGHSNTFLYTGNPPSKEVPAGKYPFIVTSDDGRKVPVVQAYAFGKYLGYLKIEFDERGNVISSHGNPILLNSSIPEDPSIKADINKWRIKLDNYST", "test": "SPR", "text": "One experimental format tested the binding of the N-terminal domain of hCD73 (consisting of residues 26-336 of human CD73; termed N-hCD73) to antibodies that were captured on immobilized protein A surfaces. For these experiments, protein A (Pierce) was immobilized to a density of 3000-4000 RU on flow cells 1-4 of a CM5 sensor chip (GE Healthcare) using standard ethyl(dimethylaminopropyl) carbodiimide (EDC)/N-hydroxysuccinimide (NHS) chemistry, with ethanolamine blocking, in a running buffer of 0.01 M HEPES pH 7.4, 0.15 M NaCl, 3 mM EDTA, 0.005% v/v tween 20. […] The running buffer for the kinetic experiments was 10 mM sodium phosphate, 130 mM sodium chloride, 0.05% tween 20, pH 7.1. The surfaces were regenerated after each cycle using two 30 s pulses of 10 mM glycine pH 1.5 at a flow rate of 30 μl/min. Sensogram data was double-referenced and then fitted to a 1:1 Langmuir model using Biacore T100 evaluation software v2.0.4, to determine the association rate constant (ka), the dissociation rate constant (kd), and the equilibrium dissociation constant (KD)."}, "[2]": {"biological_target": "T2, human CD73 on cells (human, UniProt P21589 27-549)", "T2 sequence": "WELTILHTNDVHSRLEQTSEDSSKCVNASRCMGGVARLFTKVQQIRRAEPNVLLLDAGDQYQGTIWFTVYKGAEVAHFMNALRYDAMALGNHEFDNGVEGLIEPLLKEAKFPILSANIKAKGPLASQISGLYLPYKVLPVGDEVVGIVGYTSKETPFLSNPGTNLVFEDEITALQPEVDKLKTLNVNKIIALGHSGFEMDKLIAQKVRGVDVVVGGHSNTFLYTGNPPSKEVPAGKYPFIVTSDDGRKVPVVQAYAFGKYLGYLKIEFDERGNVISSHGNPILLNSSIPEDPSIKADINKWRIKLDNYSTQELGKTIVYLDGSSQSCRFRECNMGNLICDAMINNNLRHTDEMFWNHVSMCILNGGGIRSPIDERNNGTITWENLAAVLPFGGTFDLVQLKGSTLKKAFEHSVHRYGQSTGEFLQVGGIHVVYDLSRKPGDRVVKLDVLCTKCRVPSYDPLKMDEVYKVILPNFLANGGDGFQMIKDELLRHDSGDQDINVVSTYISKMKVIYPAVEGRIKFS", "test": "cell-based or functional assay"}, "[3]": {"biological_target": "T2, human CD73 on cells", "test": "cell-based or functional assay", "remark": "listed apart in the source"}},
  "data": [
    {"binder": "B1", "values": [
      {"measurement": "Kd", "setting": "[1]", "value": 1.1, "unit": "nM"},
      {"measurement": "Ymax, cAMP HTRF assay (100 nM 11F11 set to 100%)", "setting": "[2]", "value": 76, "unit": "%"},
      {"measurement": "Ymax, CD73 internalization (100 nM 11F11 set to 100%)", "setting": "[3]", "value": 98, "unit": "%"}
    ]}
  ]
}
